Target: reconstituted human albumin (Homo sapiens, UniProt P02768)
Experiment: Release of CPT in reconstituted human albumin (PBS solution)
Format: in vitro ADME
Conditions: compared with PBS
Procedure: This solution was added to a lyophilized powder of human plasma to reconstitute 100% human plasma by the recommended amount. The solution was divided into equal volume (250 μL) to 1.5 mL Eppendorf tubes, incubated at 37° C., and stopped at selected time point. Samples were stored at −80° C. until the analysis. Samples were separated from plasma by solid phase extraction columns. The solid phase extraction cartridge (Oasis HLB 1 cc cartridge from Waters) was pre-conditioned with 1 mL of acetonitrile and then with 1 mL of 8.5% H3PO4 before loading. Samples were acidified with equal volume of 8.5% H3PO4 prior to loading. After the acidified solution was loaded on the cartridge, the bed was washed with 3×1 mL of water. Released CPT and polymer conjugate were eluted with 3×1 mL of a solution mixture of acetonitrile and potassium phosphate buffer (pH 4.1) (60/40 v/v). The eluted solution was diluted to 5 mL total volume in a 5 mL volumetric flask. 30 μL of such solution was injected into the HPLC. The peak area from the CPT lactone form was integrated and compared to a standard curve.

Sequence of reconstituted human albumin (P02768 25-609): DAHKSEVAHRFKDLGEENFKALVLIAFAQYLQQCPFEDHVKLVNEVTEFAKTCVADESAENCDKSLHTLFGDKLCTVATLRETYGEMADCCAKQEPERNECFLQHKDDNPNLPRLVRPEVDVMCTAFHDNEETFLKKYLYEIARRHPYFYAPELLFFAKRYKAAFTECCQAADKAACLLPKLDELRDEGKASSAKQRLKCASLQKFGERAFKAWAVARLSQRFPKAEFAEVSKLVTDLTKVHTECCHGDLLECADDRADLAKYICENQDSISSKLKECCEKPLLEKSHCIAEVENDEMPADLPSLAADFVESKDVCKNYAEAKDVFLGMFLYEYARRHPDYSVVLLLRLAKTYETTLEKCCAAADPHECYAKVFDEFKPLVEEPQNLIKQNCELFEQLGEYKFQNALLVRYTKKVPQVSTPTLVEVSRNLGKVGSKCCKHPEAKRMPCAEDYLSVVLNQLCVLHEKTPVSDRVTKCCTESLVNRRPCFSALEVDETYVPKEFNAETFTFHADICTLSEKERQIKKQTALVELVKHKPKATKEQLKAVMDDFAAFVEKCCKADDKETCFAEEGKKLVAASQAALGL

Substance	CPT release rate in the presence of albumin
Poly(CDDCys-PA-PEG)-Gly-CPT [HG6]	on the same order of magnitude as in PBS
Poly(CDDCys-PA-PEG)-GlyGlyGly-CPT [HGGG6]	on the same order of magnitude as in PBS

From patent US20180193486A1, “COMPOSITIONS AND METHODS FOR TREATMENT OF AUTOIMMUNE AND OTHER DISEASE” (priority 2010, published 2018)
